From the Human Domainome abundance scans (Beltran et al. 2025)
± gives the uncertainty stated by the source.

B1: Dynamin-binding protein, residues 242 to 304; numbered along this chain, Q6XZF7 (parent)
chain: EEPGTYGVALYRFQALEPNELDFEVGDKIRILATLEDGWLEGSLKGRTGIFPYRFVKLCPDTR

Variants of: B1
Test: abundance fitness (aPCA) (normalised: wild type 0, dead -1); higher = more abundant; growth selection in yeast, the domain comes from the species named
Conditions: Homo sapiens

Variant | abundance fitness
EEPGTYGVALYRFQALEPNELDFEVGDKIRILATLEVGWLEGSLKGRTGIFPYRFVKLCPDTR [D37V] | -0.561 ± 0.068
EEPGTYGVALYRFQALEPNELDFEVGDKIRILATLEGGWLEGSLKGRTGIFPYRFVKLCPDTR [D37G] | -0.073 ± 0.054
EEPGTYGVALYRFQALEPNELDFEVGDKIRILATLEIGWLEGSLKGRTGIFPYRFVKLCPDTR [D37I] | -0.89 ± 0.2
EEPGTYGVALYRFQALEPNELDFEVGDKIRILATLEFGWLEGSLKGRTGIFPYRFVKLCPDTR [D37F] | -0.56 ± 0.086
EEPGTYGVALYRFQALEPNELDFEVGDKIRILATLECGWLEGSLKGRTGIFPYRFVKLCPDTR [D37C] | -0.195 ± 0.059
EEPGTYGVALYRFQALEPNELDFEVGDKIRILATLEKGWLEGSLKGRTGIFPYRFVKLCPDTR [D37K] | -0.287 ± 0.25
EEPGTYGVALYRFQALEPNELDFEVGDKIRILATLESGWLEGSLKGRTGIFPYRFVKLCPDTR [D37S] | -0.257 ± 0.057
EEPGTYGVALYRFQALEPNELDFEVGDKIRILATLEMGWLEGSLKGRTGIFPYRFVKLCPDTR [D37M] | -1.02 ± 0.34
EEPGTYGVALYRFQALEPNELDFEVGDKIRILATLENGWLEGSLKGRTGIFPYRFVKLCPDTR [D37N] | -0.116 ± 0.06
EEPGTYGVALYRFQALEPNELDFEVGDKIRILATLERGWLEGSLKGRTGIFPYRFVKLCPDTR [D37R] | -0.59 ± 0.092
EEPGTYGVALYRFQALEPNELDFEVGDKIRILATLEPGWLEGSLKGRTGIFPYRFVKLCPDTR [D37P] | -0.476 ± 0.15
EEPGTYGVALYRFQALEPNELDFEVGDKIRILATLEHGWLEGSLKGRTGIFPYRFVKLCPDTR [D37H] | -0.274 ± 0.078
EEPGTYGVALYRFQALEPNELDFEVGDKIRILATLETGWLEGSLKGRTGIFPYRFVKLCPDTR [D37T] | -0.361 ± 0.099
EEPGTYGVALYRFQALEPNELDFEVGDKIRILATLEAGWLEGSLKGRTGIFPYRFVKLCPDTR [D37A] | -0.452 ± 0.074
EEPGTYGVALYRFQALEPNELDFEVGDKIRILATLEQGWLEGSLKGRTGIFPYRFVKLCPDTR [D37Q] | -0.298 ± 0.17
EEPGTYGVALYRFQALEPNELDFEVGDKIRILATLELGWLEGSLKGRTGIFPYRFVKLCPDTR [D37L] | -0.663 ± 0.12
EEPGTYGVALYRFQALEPNELDFEVGDKIRILATLEEGWLEGSLKGRTGIFPYRFVKLCPDTR [D37E] | -0.407 ± 0.16
EEPGTYGVALYRFQALEPNELDFEVGDKIRILAQLEDGWLEGSLKGRTGIFPYRFVKLCPDTR [T34Q] | -0.183 ± 0.12
EEPGTYGVALYRFQALEPNELDFEVGDKIRILASLEDGWLEGSLKGRTGIFPYRFVKLCPDTR [T34S] | -0.077 ± 0.047
EEPGTYGVALYRFQALEPNELDFEVGDKIRILAKLEDGWLEGSLKGRTGIFPYRFVKLCPDTR [T34K] | -0.036 ± 0.095
EEPGTYGVALYRFQALEPNELDFEVGDKIRILAMLEDGWLEGSLKGRTGIFPYRFVKLCPDTR [T34M] | -0.086 ± 0.12

Variant | abundance fitness
EEPGTYGVALYRFQALEPNELDFEVGDKIRILAHLEDGWLEGSLKGRTGIFPYRFVKLCPDTR [T34H] | 0.067 ± 0.054
EEPGTYGVALYRFQALEPNELDFEVGDKIRILAPLEDGWLEGSLKGRTGIFPYRFVKLCPDTR [T34P] | -0.59 ± 0.13
EEPGTYGVALYRFQALEPNELDFEVGDKIRILALLEDGWLEGSLKGRTGIFPYRFVKLCPDTR [T34L] | -0.41 ± 0.071
EEPGTYGVALYRFQALEPNELDFEVGDKIRILAILEDGWLEGSLKGRTGIFPYRFVKLCPDTR [T34I] | -0.168 ± 0.062
EEPGTYGVALYRFQALEPNELDFEVGDKIRILAGLEDGWLEGSLKGRTGIFPYRFVKLCPDTR [T34G] | -0.481 ± 0.06
EEPGTYGVALYRFQALEPNELDFEVGDKIRILANLEDGWLEGSLKGRTGIFPYRFVKLCPDTR [T34N] | -0.289 ± 0.064
EEPGTYGVALYRFQALEPNELDFEVGDKIRILAVLEDGWLEGSLKGRTGIFPYRFVKLCPDTR [T34V] | -0.192 ± 0.048
EEPGTYGVALYRFQALEPNELDFEVGDKIRILARLEDGWLEGSLKGRTGIFPYRFVKLCPDTR [T34R] | -0.196 ± 0.056
EEPGTYGVALYRFQALEPNELDFEVGDKIRILATLEDKWLEGSLKGRTGIFPYRFVKLCPDTR [G38K] | -1.06 ± 0.46
EEPGTYGVALYRFQALEPNELDFEVGDKIRILATLEDAWLEGSLKGRTGIFPYRFVKLCPDTR [G38A] | -0.842 ± 0.12
EEPGTYGVALYRFQALEPNELDFEVGDKIRILATLEDIWLEGSLKGRTGIFPYRFVKLCPDTR [G38I] | -0.769 ± 0.1
EEPGTYGVALYRFQALEPNELDFEVGDKIRILATLEDLWLEGSLKGRTGIFPYRFVKLCPDTR [G38L] | -0.61 ± 0.12
EEPGTYGVALYRFQALEPNELDFEVGDKIRILATLEDVWLEGSLKGRTGIFPYRFVKLCPDTR [G38V] | -0.668 ± 0.074
EEPGTYGVALYRFQALEPNELDFEVGDKIRILATLEDPWLEGSLKGRTGIFPYRFVKLCPDTR [G38P] | -1.06 ± 0.34
EEPGTYGVALYRFQALEPNELDFEVGDKIRILATLEDTWLEGSLKGRTGIFPYRFVKLCPDTR [G38T] | -0.983 ± 0.17
EEPGTYGVALYRFQALEPNELDFEVGDKIRILATLEDSWLEGSLKGRTGIFPYRFVKLCPDTR [G38S] | -0.545 ± 0.07
EEPGTYGVALYRFQALEPNELDFEVGDKIRILATLEDNWLEGSLKGRTGIFPYRFVKLCPDTR [G38N] | -0.539 ± 0.1
EEPGTYGVALYRFQALEPNELDFEVGDKIRILATLEDMWLEGSLKGRTGIFPYRFVKLCPDTR [G38M] | -0.803 ± 0.23
EEPGTYGVALYRFQALEPNELDFEVGDKIRILATLEDWWLEGSLKGRTGIFPYRFVKLCPDTR [G38W] | -1.05 ± 0.28
EEPGTYGVALYRFQALEPNELDFEVGDKIRILATLEDEWLEGSLKGRTGIFPYRFVKLCPDTR [G38E] | -0.633 ± 0.21
EEPGTYGVALYRFQALEPNELDFEVGDKIRILATLEDHWLEGSLKGRTGIFPYRFVKLCPDTR [G38H] | -0.454 ± 0.13
